# Test results published in publication doi:10.1101/641415.
# Tests used:
# [1] = target: SiiA-R162A (S. Typhimurium); experiment: SEC
# [2] = target: periplasmic region of SiiA (ppr-SiiA, aa 40-210) (S. Typhimurium); experiment: SEC
# [3] = target: SiiA periplasmic domain (SiiA-PD) (S. Typhimurium); experiment: SEC
# [4] = target: SeMet-labelled SiiA-PD (S. Typhimurium); experiment: crystal structure
substance,measurement,setting,value
SiiA-R162A (domain or fragment),stoichiometry N,[1],2
"periplasmic region of SiiA (ppr-SiiA, aa 40-210) (domain or fragment)",stoichiometry N,[2],2
SiiA periplasmic domain (SiiA-PD) (domain or fragment),stoichiometry N,[3],2
SeMet-labelled SiiA-PD (domain or fragment),stoichiometry N,[4],2
